# Source: paper PMC10945777 (Proceedings of the National Academy of Sciences of the …, 2024)
# What was measured:
# [1] = biological target: NrtBCD (nitrate site in NrtB dimer) (Nostoc sp. PCC 7120 = FACHB-418, UniProt A0ACD6B946); experiment: colorimetric ATPase assay; type: biochemical; details: 2 mM MgCl2, 50 mM Tris-HCl pH 8.0, 150 mM NaCl, 0.02% GDN, 37 °C
# [2] = biological target: NrtB of Anabaena sp. PCC 7120 (transmembrane subunit, as it stands in NrtBCD) (Anabaena sp. PCC 7120); experiment: cryo-EM structure
# [3] = biological target: signaling protein PII of Anabaena sp. PCC 7120 (Anabaena sp. PCC 7120); experiment: cryo-EM structure
compound,measurement,setting,value
O=[N+]([O-])O [nitrate],fold stimulation of ATPase activity at 8 mM,[1],~ 2.5 fold
"NrtB of Anabaena sp. PCC 7120 (transmembrane subunit, as it stands in NrtBCD) (natural protein)",stoichiometry N,[2],2
signaling protein PII of Anabaena sp. PCC 7120 (natural protein),stoichiometry N,[3],3
